Values belong to the substance of their own block, whether it stands above or below them.
What was measured:
Test in all cases: SDS-PAGE under nonreducing conditions
[1] = molecular target: rFN(AC), recombinant human fibronectin isoform containing EDA but lacking EDB (human)
[2] = molecular target: rFN(BAC), recombinant human fibronectin isoform containing both EDA and EDB segments (human)
[3] = molecular target: rFN(C), recombinant human fibronectin isoform lacking both EDA and EDB segments (human)

- stoichiometry N [1]: 2
Substance: rFN(AC), recombinant human fibronectin isoform containing EDA but lacking EDB (natural protein)

- stoichiometry N [2]: 2
Substance: rFN(BAC), recombinant human fibronectin isoform containing both EDA and EDB segments (natural protein)

- stoichiometry N [3]: 2
Substance: rFN(C), recombinant human fibronectin isoform lacking both EDA and EDB segments (natural protein)

Source: PMC2139828
